Article PMC9178005

B1: micF DNA2-Cy5-biotin (bioDNA) (dsDNA)
DNA 1: GTATTTGACAGCACTGAATGTCAAAACAAAACCTTCACTCGCAACTATAATGGGAGCTGTCACGGATGCAACTTTATTTATTACC
DNA 2: GGTAATAAATAAAGTTGCATCCGTGACAGCTCCCATTATAGTTGCGAGTGAAGGTTTTGTTTTGACATTCAGTGCTGTCAAATAC
modifications: internal Cy5-dT in template strand
B2: micF DNA2-Cy5 (dsDNA)
DNA 1: B1 DNA 1
DNA 2: B1 DNA 2
modifications: internal Cy5-dT in template strand

What was measured:
[1] = biological target: Rob Cys281-Cy3B;RNA polymerase sigma70 holoenzyme (Escherichia coli;Escherichia coli, UniProt P0ACI0;P0A7Z4;P0A8V2;P0A8T7;P0A800;P00579 1-289;1-329;1-1342;1-1407;1-91;1-613, C147S;C247S|); test: single-molecule FRET
[2] = biological target: Rob Cys281-Cy3B;biotinylated RNAP holoenzyme (Escherichia coli;Escherichia coli?, UniProt P0ACI0;P0A7Z4;P0A8V2;P0A8T7;P0A800;P00579 1-289;1-329;1-1342;1-1407;1-91;1-613, C147S;C247S|); test: single-molecule FRET

Binder	binding result [1]	binding result [2]
B1	binds	–
B2	–	binds
